The assay has as its target mysterin/RNF213, wild type, full length, C-terminally 3 × FLAG-tagged (mysterin-FLAG) and C-terminally cMyc-tagged (mysterin-Myc) copies (human) (UniProt Q63HN8). In words: co-IP; two differently tagged copies (C-terminal 3 × FLAG and cMyc) co-expressed in HEK-293 cells; lysate immunoprecipitated with anti-FLAG antibody, immunoblot with anti-Myc antibody; lysis buffer 1% NP-40, 150 mM KCl, 50 mM HEPES-NaOH pH 7.5. Conditions: remark: other sources report otherwise.

These results are taken from publication PMC3963067.

Consider “mysterin/RNF213, wild type, full length, C-terminally 3 × FLAG-tagged (mysterin-FLAG) and C-terminally cMyc-tagged (mysterin-Myc) copies, Q63HN8 1-5207”, for which the efficiency of the co-IP (co-IP divided by the basal expression level) is 1 to 3%.
